Values of other authors, collected in article PMC10990137.

Target: IGF2R domain 11 (Homo sapiens) (UniProt P11717)
Conditions: cited from earlier work

Sequence of IGF2R domain 11 (Homo sapiens) (P11717 1508-1650): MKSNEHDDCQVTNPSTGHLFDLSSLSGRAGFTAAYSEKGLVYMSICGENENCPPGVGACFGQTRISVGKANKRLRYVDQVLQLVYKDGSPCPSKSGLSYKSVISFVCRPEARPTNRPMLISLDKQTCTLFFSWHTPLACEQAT
Sequence of IGF2 (P01344 25-91): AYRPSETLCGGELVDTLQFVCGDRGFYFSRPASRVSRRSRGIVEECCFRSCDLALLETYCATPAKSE

Substance: IGF2 (from UniProt P01344)
- Kd: 4.5 nM
